This is an account of results in the supplement of paper PMC7877785.

± gives the uncertainty stated by the source.

The nature of this series: self-splicing fitness, log relative to wild type (ln ratio); higher = more splicing; Tetrahymena group I intron in knt gene, E. coli kanamycin selection, DiMSum; sequences stand for … in CUCUCU…GGAGGGAAAAGUUAUCAGGCAUGCACCUGGUAGCUAGUCUUUAAACCAAUAGAUUGCAUCGGUUUAAAAGGCAAGACCGUCAAAUUGCGGGAAAGGGGUCAACAGCCGUUCAGUACCAAGUCUCAGGGGAAACUUUGAGAUGGCCUUGCAAAGGGUAUGGUAAUAAGCUGACGGACAUGGUCCUAACCACGCAGCCAAGUCCUAAGUCAACAGAUCUUCUGUUGAUAUGGAUGCAGUUCACAGACUAAAUGUCGGUCGGGGAAGAUGUAUUCUUCUCAUAAGAUAUAGUCGGACCUCUCCUUAAUGGGAGCUAGCGGAUGAAGUGAUGCAACACUGGAGCCGCUGGGAACUAAUUUGUAUGCGAAAGUAUAUUGAUUAGUUUUGGAGUACUCGUGGUCG
A digest of the protocol: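 Library with all eight P1ex-region intron nucleotides randomised, intron inside the knt kanamycin-resistance gene on pET-22b(+), in E. coli BL21(DE3). Cells grew overnight at 37°C or 30°C on LB agar with or without 25 μg/mL kanamycin (plus 100 μg/mL carbenicillin, 50 μM IPTG, 0.2% rhamnose), in six replicate transformations. Pooled colonies were amplicon-sequenced on Illumina HiSeq 2500. DiMSum fitness is the error-weighted combination of wild-type-normalised replicate fold changes, kanamycin versus none.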

For the sequence AGGAAGCAAUAUUACGACAG, the “self-splicing fitness (ln)” value (30 °C) is -2.74 ± 0.19 and the “self-splicing fitness (ln)” value (37 °C) is -1.64 ± 0.18. Taken in the same sequence, the figures for GGAGAGCAAUAUUACGACAU were -2.642 ± 0.022 and -1.55 ± 0.037. The corresponding values for CCCUAGCAAUAUUACGGACA are -2.94 ± 0.32 and -2.62 ± 0.24.

Regarding UAUUAGCAAUAUUACGCGCG, the “self-splicing fitness (ln)” value was -0.142 ± 0.17 (30 °C) and -0.528 ± 0.17 (37 °C). With CGUUAGCAAUAUUACGAGGU, the “self-splicing fitness (ln)” value was -4.3 ± 0.29 (30 °C) and -2.49 ± 0.23 (37 °C). The corresponding values for GUAUAGCAAUAUUACGAUUC are 0.127 ± 0.1 and 0.598 ± 0.13. Consider AUGAAGCAAUAUUACGGGGA, for which the “self-splicing fitness (ln)” value is, setting by setting: (30 °C) -2.4 ± 0.15; (37 °C) -1.31 ± 0.17.

Take GGACAGCAAUAUUACGUUAC: the “self-splicing fitness (ln)” value reads like this: (30 °C) -2.86 ± 0.2; (37 °C) -2.49 ± 0.26. The corresponding values for CAGCAGCAAUAUUACGAGUG are -1.54 ± 0.056 and -0.155 ± 0.074. Regarding UAAUAGCAAUAUUACGGUCG, the “self-splicing fitness (ln)” value is, setting by setting: (30 °C) -0.872 ± 0.1; (37 °C) 0.313 ± 0.11.

For CGCGAGCAAUAUUACGUUAA, the “self-splicing fitness (ln)” value by setting is: (30 °C) -3.18 ± 0.16; (37 °C) -4.09 ± 0.36. As to ACAGAGCAAUAUUACGAAAG, the “self-splicing fitness (ln)” value by setting is: (30 °C) -3.24 ± 0.19; (37 °C) -1.46 ± 0.16. Regarding AGGUAGCAAUAUUACGGCGC, the “self-splicing fitness (ln)” value by setting is: (30 °C) -0.0707 ± 0.015; (37 °C) 0.163 ± 0.033. Turning to AUAGAGCAAUAUUACGAAGC, the “self-splicing fitness (ln)” value is -2.7 ± 0.28 (30 °C) and -0.819 ± 0.35 (37 °C). The corresponding values for ACUGAGCAAUAUUACGACAG are -0.882 ± 0.091 and -0.105 ± 0.12.

With CCCCAGCAAUAUUACGGUCG, the “self-splicing fitness (ln)” value reads like this: (30 °C) -2.24 ± 0.068; (37 °C) -1.2 ± 0.078. UAAGAGCAAUAUUACGAAAC: the “self-splicing fitness (ln)” value (37 °C) is -2.99 ± 0.37. With UCACAGCAAUAUUACGCUCU, the “self-splicing fitness (ln)” value by setting is: (30 °C) -2.38 ± 0.16; (37 °C) -3.34 ± 0.47. The corresponding values for UUGGAGCAAUAUUACGGGGA are -3.14 ± 0.28 and -2.72 ± 0.31. Taken in the same sequence, the figures for UCACAGCAAUAUUACGUAAU were -3.25 ± 0.21 and -2.54 ± 0.29. Take AGGUAGCAAUAUUACGCCCA: the “self-splicing fitness (ln)” value was 0.15 ± 0.02 (30 °C) and -0.0344 ± 0.039 (37 °C).

As to CUAGAGCAAUAUUACGAAGA, the “self-splicing fitness (ln)” value was -3.61 ± 0.28 (30 °C) and -1.94 ± 0.43 (37 °C).

Consider CACAAGCAAUAUUACGGGGC, for which the “self-splicing fitness (ln)” value reads like this: (30 °C) -3.54 ± 0.17; (37 °C) -2.54 ± 0.18. The corresponding values for UUAAAGCAAUAUUACGGGCG are 0.077 ± 0.081 and -0.11 ± 0.1.

Turning to GUUAAGCAAUAUUACGUUGA, the “self-splicing fitness (ln)” value by setting is: (30 °C) -3.87 ± 0.33; (37 °C) -1.43 ± 0.25. Take CGAGAGCAAUAUUACGCGGA: the “self-splicing fitness (ln)” value (30 °C) was -2.34 ± 0.37 and the “self-splicing fitness (ln)” value (37 °C) is -1.37 ± 0.19. The corresponding values for UAAUAGCAAUAUUACGGCAG are -1.08 ± 0.1 and -0.425 ± 0.13. Consider CAGGAGCAAUAUUACGGUAA, for which, for the setting “37 °C”, the “self-splicing fitness (ln)” value is -2.51 ± 0.44. On to AUCGAGCAAUAUUACGACGG, for which the “self-splicing fitness (ln)” value by setting is: (30 °C) -3.75 ± 0.44; (37 °C) -1.7 ± 0.33. Taken in the same sequence, the figures for UCGAAGCAAUAUUACGUCGC were -1.76 ± 0.14 and -1.86 ± 0.19.

AGAAAGCAAUAUUACGGCCG: the “self-splicing fitness (ln)” value (30 °C) is -0.348 ± 0.11 and the “self-splicing fitness (ln)” value (37 °C) was -0.28 ± 0.14.

In the case of CACGAGCAAUAUUACGAGAG, the “self-splicing fitness (ln)” value (30 °C) was -3.14 ± 0.15 and the “self-splicing fitness (ln)” value (37 °C) was -2.18 ± 0.18. As for CGUAAGCAAUAUUACGCUCG, the “self-splicing fitness (ln)” value reads like this: (30 °C) -1.8 ± 0.17; (37 °C) -0.572 ± 0.23. The corresponding values for GGAUAGCAAUAUUACGUUCG are -1.55 ± 0.12 and -1.64 ± 0.14. Consider ACGAAGCAAUAUUACGCCUC, for which the “self-splicing fitness (ln)” value runs as follows: (30 °C) -2.93 ± 0.31; (37 °C) -1.77 ± 0.47. Consider CACGAGCAAUAUUACGAAAU, for which the “self-splicing fitness (ln)” value runs as follows: (30 °C) -2.18 ± 0.19; (37 °C) -2.81 ± 0.29. On to UUCAAGCAAUAUUACGUGGG, for which the “self-splicing fitness (ln)” value (30 °C) is -3.07 ± 0.11 and the “self-splicing fitness (ln)” value (37 °C) was -1.97 ± 0.13.

In the case of UUACAGCAAUAUUACGUAAA, the “self-splicing fitness (ln)” value by setting is: (30 °C) -1.59 ± 0.13; (37 °C) -0.34 ± 0.12.
